Consider one substance from US20030219386.

The series addresses soluble recombinant uPAR (suPAR), expressed in Drosophila S2 cells (UniProt Q03405).

soluble recombinant uPAR (suPAR), expressed in Drosophila S2 cells, sequence (Q03405 23-299): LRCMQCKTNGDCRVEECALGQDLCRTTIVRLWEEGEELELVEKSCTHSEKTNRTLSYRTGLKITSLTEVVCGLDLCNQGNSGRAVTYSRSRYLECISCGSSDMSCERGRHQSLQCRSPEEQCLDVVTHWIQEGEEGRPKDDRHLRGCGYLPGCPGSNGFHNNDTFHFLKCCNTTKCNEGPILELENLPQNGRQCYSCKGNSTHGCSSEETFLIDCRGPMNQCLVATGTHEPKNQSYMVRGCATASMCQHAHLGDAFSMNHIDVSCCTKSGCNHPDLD

Take “recombinant human single chain urokinase plasminogen activator (scuPA), wild-type, aa1-411 of the mature human sequence, expressed in Drosophila S2 cells”: the “activity of scuPA in complex with suPAR” value is listed as “scuPA prepared in this manner was active in complex with suPAR as well as when activated by plasmin”.
